Key:
Test in all cases: ELONA (direct, immobilized protein)
[1] = target: SARS-CoV-2 Alpha VOC spike (S) protein (SARS-CoV-2 (Alpha variant)) (UniProt P0DTC2)
[2] = target: SARS-CoV-2 Delta VOC spike (S) protein (SARS-CoV-2 (Delta variant)) (UniProt P0DTC2)
[3] = target: SARS-CoV-2 Omicron VOC spike (S) protein (SARS-CoV-2 (Omicron variant)) (UniProt P0DTC2)

## AGTTAGCCGTCATTCAGACGATTTGTCCGTGTTACGATTGGGGAACGTGGATGACATTCTGGACACTCGCCATGCTCGAT [Alpha Apt (Bio)]
[1]
  Kd: 194 nM

## ATCGAGCATGGCGAGTGTCCTATCCCCCATCAACTCAACCCAACCAGTACGACTCCTCCTCGTCTGAATGACGGCTAACT [Delta Apt (Bio)]
[2]
  Kd: 112 nM

## CTGGCCTCACTGGATACTCTAAGACTATTGGTCAAGTTTGCCTTGTCAAGGCTATTGGTCAAGGCAAGGCTGGCCAACCCATGGGTGGAGTTTAGCCAG [Omicron Apt (Bio)]
[3]
  Kd: 32 nM

Source: paper PMC11868117
